Measurements as given in publication PMC6422423, “Constitutively active BRS3 is a genuinely orphan GPCR in placental mammals” (PLoS Biology, 2019).
Where a chain is given by its changes, count along the chain named. Names and notes keep the numbering of the source.

Key:
mouse BRS3 (mBRS3) = assay: Luciferase reporter, constitutive activity (WT, mutants, truncated; with/without inhibitor); type: cell-based; parameters: key to constitutive luciferase activity: fold over pcDNA-transfected blank control (blank = 1); conditions: for luciferase, CRE / luciferase, NFAT / luciferase, SRE / luciferase, SRF: Blank = 1; for CRE luciferase reporter activity relative to Blank (Blank = 1) / NFAT luciferase reporter activity relative to Blank (Blank = 1) / SRF luciferase reporter activity relative to Blank (Blank = 1): constitutive, full-length mBRS3 and truncated N-mBRS3; for constitutive luciferase activity: no ligand
Method: (§1) To detect constitutive activity of BRS3, HEK293 cells were seeded in 24-well plates and cotransfected with the CRE/NFAT-RE/SRF-RE/SRE luciferase reporter plasmids (50 ng), the BRS3 from different species, or BRS3 mutants with different doses (10 ng/50 ng/150 ng); after 24 h, cells were further incubated in serum-free media for another 12 h before luciferase assay. As for peptide supplementation treatment, HEK293 cells were cotransfected with the CRE/NFAT-RE/SRF-RE/SRE luciferase reporter plasmids (50 ng) and various genes (300 ng) of the bombesin receptor family. […] Luciferase activities were determined using luciferase assay kits (Beyotime, Shanghai, China) and normalized to β-galactosidase activity. All experiments were performed at least three times in triplicates. HEK293 cells transfected with pcDNA were used as a blank control in all luciferase experiments, and the fold was calculated compared to blank control.

human BRS3 (hBRS3) = assay: as above; type: cell-based; conditions: for luciferase, CRE / luciferase, NFAT / luciferase, SRE / luciferase, SRF: Blank = 1; for CRE luciferase reporter activity relative to Blank (Blank = 1) / NFAT luciferase reporter activity relative to Blank (Blank = 1) / SRF luciferase reporter activity relative to Blank (Blank = 1): constitutive
Method: as §1

[1] = full-length hBRS3 and truncated N-hBRS3, replicate 1
[2] = full-length hBRS3 and truncated N-hBRS3, replicate 2
[3] = full-length hBRS3 and truncated N-hBRS3, third line, unlabelled, equals mean of the two replicates
[4] = hBRS3 WT and mutant 3, replicate 1
[5] = hBRS3 WT and mutant 3, replicate 2
[6] = hBRS3 WT and mutant 3, third line, unlabelled, equals mean of the two replicates

B1: mouse (protein, UniProt O54798 1-399, looked up)
Bombesin receptor subtype-3: MSQRQSQSPNQTLISITNDTETSSSVVSNDTTHKGWTGDNSPGIEALCAIYITYAGIISVGILGNAILIKVFFKTKSMQTVPNIFITSLAFGDLLLLLTCVPVDATHYLAEGWLFGKVGCKVLSFIRLTSVGVSVFTLTILSADRYKAVVKPLERQPPNAILKTCAKAGGIWIVSMIFALPEAIFSNVYTFQDPNRNVTFESCNSYPISERLLQEIHSLLCFLVFYIIPLSIISVYYSLIARTLYKSTLNIPTEEQSHARKQIESRKRIAKTVLVLVALFALCWLPNHLLYLYHSFTYESYANHSDVPFVIIIFSRVLAFSNSCVNPFALYWLSKTFQQHFKAQLCCLKAEQPEPPLGDIPLNNLTVMGRVPATGSAHVSEISVTLFSGSSAKKGEDKV
- luciferase, CRE (mouse BRS3 (mBRS3); value 1 of 3): 19.4537
- luciferase, NFAT (mouse BRS3 (mBRS3); value 1 of 3): 19.0254
- luciferase, SRE (mouse BRS3 (mBRS3); value 1 of 3): 1.5624
- luciferase, SRF (mouse BRS3 (mBRS3); value 1 of 3): 20.3125
- luciferase, CRE (mouse BRS3 (mBRS3); value 2 of 3): 18.5759
- luciferase, NFAT (mouse BRS3 (mBRS3); value 2 of 3): 18.2536
- luciferase, SRE (mouse BRS3 (mBRS3); value 2 of 3): 1.4021
- luciferase, SRF (mouse BRS3 (mBRS3); value 2 of 3): 21.0453
- luciferase, NFAT (mouse BRS3 (mBRS3); value 3 of 3): 18.6395
- luciferase, SRE (mouse BRS3 (mBRS3); value 3 of 3): 1.4823
- luciferase, SRF (mouse BRS3 (mBRS3); value 3 of 3): 20.6789

B2: mBRS3 (protein)
chain: B1 Bombesin receptor subtype-3
modifications: left off: V5 (from the vector pcDNA3.1-V5-His), end not stated, state not stated | His tag (from the vector pcDNA3.1-V5-His), end not stated, state not stated
- CRE luciferase reporter activity relative to Blank (Blank = 1) (mouse BRS3 (mBRS3); CRE, replicate 1): 16.331
- CRE luciferase reporter activity relative to Blank (Blank = 1) (mouse BRS3 (mBRS3); CRE, replicate 2): 17.4509
- CRE luciferase reporter activity relative to Blank (Blank = 1) (mouse BRS3 (mBRS3); CRE, third line, unlabelled, equals mean of the two replicates): 16.8909
- constitutive luciferase activity (mouse BRS3 (mBRS3); CRE, mean): 17.9436
- constitutive luciferase activity (mouse BRS3 (mBRS3); CRE, replicate 1): 17.8927
- constitutive luciferase activity (mouse BRS3 (mBRS3); CRE, replicate 2): 17.9945
- NFAT luciferase reporter activity relative to Blank (Blank = 1) (mouse BRS3 (mBRS3); replicate 1): 16.9181
- NFAT luciferase reporter activity relative to Blank (Blank = 1) (mouse BRS3 (mBRS3); replicate 2): 16.5656
- NFAT luciferase reporter activity relative to Blank (Blank = 1) (mouse BRS3 (mBRS3); third line, unlabelled, equals mean of the two replicates): 16.7418
- SRF luciferase reporter activity relative to Blank (Blank = 1) (mouse BRS3 (mBRS3); SRF, replicate 1): 18.8375
- SRF luciferase reporter activity relative to Blank (Blank = 1) (mouse BRS3 (mBRS3); SRF, replicate 2): 17.9845
- SRF luciferase reporter activity relative to Blank (Blank = 1) (mouse BRS3 (mBRS3); SRF, third line, unlabelled, equals mean of the two replicates): 18.411
- constitutive luciferase activity (mouse BRS3 (mBRS3); SRF, mean): 20.9426
- constitutive luciferase activity (mouse BRS3 (mBRS3); SRF, replicate 1): 19.9659
- constitutive luciferase activity (mouse BRS3 (mBRS3); SRF, replicate 2): 21.9194

B3: mBRS3-P158A (protein, UniProt O54798 1-399, looked up, variant P158A)
Bombesin receptor subtype-3: B1 Bombesin receptor subtype-3 with P158A
- constitutive luciferase activity (mouse BRS3 (mBRS3); CRE, mean): 15.9368
- constitutive luciferase activity (mouse BRS3 (mBRS3); CRE, replicate 1): 15.6335
- constitutive luciferase activity (mouse BRS3 (mBRS3); CRE, replicate 2): 16.2401

B4: mBRS3-R370A (protein, UniProt O54798 1-399, looked up, variant R370A)
Bombesin receptor subtype-3: B1 Bombesin receptor subtype-3 with R370A
- constitutive luciferase activity (mouse BRS3 (mBRS3); CRE, mean): 17.8056
- constitutive luciferase activity (mouse BRS3 (mBRS3); CRE, replicate 1): 17.9268
- constitutive luciferase activity (mouse BRS3 (mBRS3); CRE, replicate 2): 17.6843

B5: mBRS3-P372A (protein, UniProt O54798 1-399, looked up, variant P372A)
Bombesin receptor subtype-3: B1 Bombesin receptor subtype-3 with P372A
- constitutive luciferase activity (mouse BRS3 (mBRS3); CRE, mean): 17.158
- constitutive luciferase activity (mouse BRS3 (mBRS3); CRE, replicate 1): 17.4198
- constitutive luciferase activity (mouse BRS3 (mBRS3); CRE, replicate 2): 16.8962

B6: mBRS3-F337A (protein, UniProt O54798 1-399, looked up, variant F337A)
Bombesin receptor subtype-3: B1 Bombesin receptor subtype-3 with F337A
- constitutive luciferase activity (mouse BRS3 (mBRS3); SRF, mean): 15.0321
- constitutive luciferase activity (mouse BRS3 (mBRS3); SRF, replicate 1): 15.1183
- constitutive luciferase activity (mouse BRS3 (mBRS3); SRF, replicate 2): 14.946

B7: mBRS3-R268A (protein, UniProt O54798 1-399, looked up, variant R268A)
Bombesin receptor subtype-3: B1 Bombesin receptor subtype-3 with R268A
- constitutive luciferase activity (mouse BRS3 (mBRS3); SRF, mean): 19.8563
- constitutive luciferase activity (mouse BRS3 (mBRS3); SRF, replicate 1): 19.1647
- constitutive luciferase activity (mouse BRS3 (mBRS3); SRF, replicate 2): 20.5479

B8: mBRS3-Q339A (protein, UniProt O54798 1-399, looked up, variant Q339A)
Bombesin receptor subtype-3: B1 Bombesin receptor subtype-3 with Q339A
- constitutive luciferase activity (mouse BRS3 (mBRS3); SRF, mean): 15.5479
- constitutive luciferase activity (mouse BRS3 (mBRS3); SRF, replicate 1): 16.2185
- constitutive luciferase activity (mouse BRS3 (mBRS3); SRF, replicate 2): 14.8773

B9: mBRS3-Q156A (protein, UniProt O54798 1-399, looked up, variant Q156A)
Bombesin receptor subtype-3: B1 Bombesin receptor subtype-3 with Q156A
- constitutive luciferase activity (mouse BRS3 (mBRS3); CRE, mean): 16.9342
- constitutive luciferase activity (mouse BRS3 (mBRS3); CRE, replicate 1): 16.8106
- constitutive luciferase activity (mouse BRS3 (mBRS3); CRE, replicate 2): 17.0578

B10: mBRS3-A270I (protein, UniProt O54798 1-399, looked up, variant A270I)
Bombesin receptor subtype-3: B1 Bombesin receptor subtype-3 with A270I
- constitutive luciferase activity (mouse BRS3 (mBRS3); SRF, mean): 14.9649
- constitutive luciferase activity (mouse BRS3 (mBRS3); SRF, replicate 1): 15.7177
- constitutive luciferase activity (mouse BRS3 (mBRS3); SRF, replicate 2): 14.2121

B11: human (protein, UniProt P32247 1-399, looked up)
Bombesin receptor subtype-3: MAQRQPHSPNQTLISITNDTESSSSVVSNDNTNKGWSGDNSPGIEALCAIYITYAVIISVGILGNAILIKVFFKTKSMQTVPNIFITSLAFGDLLLLLTCVPVDATHYLAEGWLFGRIGCKVLSFIRLTSVGVSVFTLTILSADRYKAVVKPLERQPSNAILKTCVKAGCVWIVSMIFALPEAIFSNVYTFRDPNKNMTFESCTSYPVSKKLLQEIHSLLCFLVFYIIPLSIISVYYSLIARTLYKSTLNIPTEEQSHARKQIESRKRIARTVLVLVALFALCWLPNHLLYLYHSFTSQTYVDPSAMHFIFTIFSRVLAFSNSCVNPFALYWLSKSFQKHFKAQLFCCKAERPEPPVADTSLTTLAVMGTVPGTGSIQMSEISVTSFTGCSVKQAEDRF
- luciferase, CRE (human BRS3 (hBRS3); value 1 of 3): 4.2545
- luciferase, NFAT (human BRS3 (hBRS3); value 1 of 3): 6.3808
- luciferase, SRE (human BRS3 (hBRS3); value 1 of 3): 1.2780
- luciferase, SRF (human BRS3 (hBRS3); value 1 of 3): 4.0202
- luciferase, CRE (human BRS3 (hBRS3); value 2 of 3): 3.9246
- luciferase, NFAT (human BRS3 (hBRS3); value 2 of 3): 6.2351
- luciferase, SRE (human BRS3 (hBRS3); value 2 of 3): 1.0242
- luciferase, SRF (human BRS3 (hBRS3); value 2 of 3): 3.9201
- luciferase, CRE (human BRS3 (hBRS3); value 3 of 3): 4.0896
- luciferase, NFAT (human BRS3 (hBRS3); value 3 of 3): 6.5264
- luciferase, SRE (human BRS3 (hBRS3); value 3 of 3): 1.5319
- luciferase, SRF (human BRS3 (hBRS3); value 3 of 3): 4.1204

B12: hBRS3 (protein)
chain: B11 Bombesin receptor subtype-3
modifications: left off: V5 (from the vector pcDNA3.1-V5-His), end not stated, state not stated | His tag (from the vector pcDNA3.1-V5-His), end not stated, state not stated
- CRE luciferase reporter activity relative to Blank (Blank = 1) (human BRS3 (hBRS3); [1]): 3.5016
- CRE luciferase reporter activity relative to Blank (Blank = 1) (human BRS3 (hBRS3); [2]): 4.7486
- CRE luciferase reporter activity relative to Blank (Blank = 1) (human BRS3 (hBRS3); [3]): 4.1251
- NFAT luciferase reporter activity relative to Blank (Blank = 1) (human BRS3 (hBRS3); [1]): 5.5943
- NFAT luciferase reporter activity relative to Blank (Blank = 1) (human BRS3 (hBRS3); [2]): 5.6987
- NFAT luciferase reporter activity relative to Blank (Blank = 1) (human BRS3 (hBRS3); [3]): 5.6465
- SRF luciferase reporter activity relative to Blank (Blank = 1) (human BRS3 (hBRS3); [1]): 3.202
- SRF luciferase reporter activity relative to Blank (Blank = 1) (human BRS3 (hBRS3); [2]): 3.9147
- SRF luciferase reporter activity relative to Blank (Blank = 1) (human BRS3 (hBRS3); [3]): 3.5584

B13: hBRS3-WT (protein, UniProt P32247 1-399, looked up)
Bombesin receptor subtype-3: B11 Bombesin receptor subtype-3
- CRE luciferase reporter activity relative to Blank (Blank = 1) (human BRS3 (hBRS3); [4]): 4.2545
- CRE luciferase reporter activity relative to Blank (Blank = 1) (human BRS3 (hBRS3); [5]): 3.9246
- CRE luciferase reporter activity relative to Blank (Blank = 1) (human BRS3 (hBRS3); [6]): 4.0896
- NFAT luciferase reporter activity relative to Blank (Blank = 1) (human BRS3 (hBRS3); [4]): 6.5264
- NFAT luciferase reporter activity relative to Blank (Blank = 1) (human BRS3 (hBRS3); [5]): 6.2351
- NFAT luciferase reporter activity relative to Blank (Blank = 1) (human BRS3 (hBRS3); [6]): 6.3808
- SRF luciferase reporter activity relative to Blank (Blank = 1) (human BRS3 (hBRS3); [4]): 4.1204
- SRF luciferase reporter activity relative to Blank (Blank = 1) (human BRS3 (hBRS3); [5]): 3.9201
- SRF luciferase reporter activity relative to Blank (Blank = 1) (human BRS3 (hBRS3); [6]): 4.0202
